Patent publication US20040043401A1 (SLOAN KETTERING INSTITUTE FOR CANCER RESEARCH, published 2004)

Target: human prostate-specific membrane antigen (PSMA) (human, UniProt Q04609 1-750)
Assay: cell-based or functional assay

Chain of human prostate-specific membrane antigen (PSMA) (Q04609 whole entry): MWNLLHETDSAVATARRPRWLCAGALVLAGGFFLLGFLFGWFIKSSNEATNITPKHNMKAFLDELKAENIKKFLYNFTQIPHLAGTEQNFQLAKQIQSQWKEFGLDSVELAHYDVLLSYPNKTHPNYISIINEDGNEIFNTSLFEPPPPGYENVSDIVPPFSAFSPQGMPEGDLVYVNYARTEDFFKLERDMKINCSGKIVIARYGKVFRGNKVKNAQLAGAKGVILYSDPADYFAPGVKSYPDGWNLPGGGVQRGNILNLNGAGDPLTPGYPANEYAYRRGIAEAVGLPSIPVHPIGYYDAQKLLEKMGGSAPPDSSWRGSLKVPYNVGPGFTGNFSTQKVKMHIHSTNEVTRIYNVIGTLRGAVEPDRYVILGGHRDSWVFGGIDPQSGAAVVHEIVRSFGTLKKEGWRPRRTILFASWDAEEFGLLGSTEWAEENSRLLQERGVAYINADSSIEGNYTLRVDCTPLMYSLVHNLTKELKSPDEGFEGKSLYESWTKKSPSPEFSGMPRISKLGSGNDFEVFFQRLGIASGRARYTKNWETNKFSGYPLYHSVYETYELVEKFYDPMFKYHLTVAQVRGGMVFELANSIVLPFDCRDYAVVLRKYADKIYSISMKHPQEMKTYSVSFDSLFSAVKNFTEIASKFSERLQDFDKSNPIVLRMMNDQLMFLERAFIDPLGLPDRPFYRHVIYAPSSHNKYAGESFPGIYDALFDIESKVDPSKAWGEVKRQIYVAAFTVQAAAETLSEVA

B1: P28z fusion receptor (J591 scFv - human CD28 hinge, transmembrane and intracellular portions - intracellular domain of human TCR zeta) (receptor, not shown: a dimerising Fc or GST; small tags and cut ends)
chain: IEVMYPPPYLDNEKSNGTIIHVKGKHLCPSPLFPGPSKPFWVLVVVGGVLACYSLLVTVAFIIFWVRSKRSRLLHSDYMNMTPRRPGPTRKHYQPYAPPRDFAAYRSRVKFSRSADAPAYQQGQNQLYNELNLGRREEYDVLDKRRGRDPEMGGKPRRKNPQEGLYNELQKDKMAEAYSEIGMKGERRRGKGHDGLYQGLSTATKDTYDALHMQALPPR
  expansion in total cell number after re-stimulation with PSMA, seven days: 4 fold
  expansion of transduced T cells on NIH3T3 cells expressing PSMA alone, seven days: 8.6 fold
